Results from the supplement of paper PMC9112550, “Optimization of the antimicrobial peptide Bac7 by deep mutational scanning” (BMC Biology, 2022).

These sequences were tested on Escherichia coli TOP10 (assay: shrunken log2 fold change of peptide-encoding DNA abundance (4.5 h post-induction vs induction); higher = less antimicrobial activity (less host growth inhibition)). Details: time post-induction: 4.5 h; library: site-saturation at positions 5, 18, 19, 20.
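Also: peptides expressed intracellularly from a pBAD plasmid library in pooled LB shake-flask culture, induced with 0.3% L-arabinose, DNA abundance read by NGS, three biological replicates, DESeq2 with apeglm shrinkage.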

| Sequence | shrunken log2 fold change |
| --- | --- |
| RRIRPRPPRLPRPRPRPTRDPRP | 0.481 |
| RRIRCRPPRLPRPRPRPSEQPRP | -0.0681 |
| RRIRMRPPRLPRPRPRPMMGPRP | 0.0255 |
| RRIRMRPPRLPRPRPRPLMHPRP | 0.341 |
| RRIRKRPPRLPRPRPRPNADPRP | 0.0182 |
| RRIRTRPPRLPRPRPRPKHQPRP | 0.219 |
| RRIRCRPPRLPRPRPRPFPTPRP | -0.249 |
| RRIRERPPRLPRPRPRPLWMPRP | 0.00675 |
| RRIRVRPPRLPRPRPRPNMPPRP | -0.0801 |
| RRIRMRPPRLPRPRPRPLEVPRP | 0.405 |
| RRIRLRPPRLPRPRPRPVHCPRP | -0.11 |
| RRIRSRPPRLPRPRPRPRFEPRP | 0.402 |
| RRIRFRPPRLPRPRPRPMCEPRP | -0.236 |
| RRIRTRPPRLPRPRPRPHQVPRP | -0.0174 |
| RRIRYRPPRLPRPRPRPGMTPRP | 0.0238 |
| RRIRARPPRLPRPRPRPWSHPRP | -0.186 |
| RRIRVRPPRLPRPRPRPCKVPRP | 0.00272 |
| RRIRQRPPRLPRPRPRPYWFPRP | 0.00499 |
| RRIRWRPPRLPRPRPRPDYIPRP | -0.00749 |
| RRIRHRPPRLPRPRPRPSWTPRP | -0.356 |
| RRIRSRPPRLPRPRPRPIVHPRP | -0.2 |
| RRIRVRPPRLPRPRPRPMAPPRP | 0.0351 |
| RRIRCRPPRLPRPRPRPGYQPRP | -0.06 |
| RRIRPRPPRLPRPRPRPRTIPRP | 0.206 |
| RRIRLRPPRLPRPRPRPVNWPRP | 0.0772 |

| Sequence | shrunken log2 fold change |
| --- | --- |
| RRIRERPPRLPRPRPRPVGLPRP | 0.147 |
| RRIRGRPPRLPRPRPRPMMIPRP | -0.0387 |
| RRIRRRPPRLPRPRPRPLQAPRP | 0.98 |
| RRIRFRPPRLPRPRPRPSELPRP | -0.0817 |
| RRIRTRPPRLPRPRPRPCLNPRP | -0.000349 |
| RRIRWRPPRLPRPRPRPRSMPRP | 0.0304 |
| RRIRARPPRLPRPRPRPRSRPRP | 0.757 |
| RRIRSRPPRLPRPRPRPNKNPRP | -0.384 |
| RRIRMRPPRLPRPRPRPEFGPRP | 1.22 |
| RRIRERPPRLPRPRPRPQWYPRP | -0.56 |
| RRIRGRPPRLPRPRPRPVCSPRP | 0.613 |
| RRIRRRPPRLPRPRPRPRDMPRP | 0.186 |
| RRIRCRPPRLPRPRPRPNTAPRP | -0.22 |
| RRIRARPPRLPRPRPRPVKWPRP | 3.06 |
| RRIRMRPPRLPRPRPRPSPIPRP | -0.106 |
| RRIRARPPRLPRPRPRPDGLPRP | 0.292 |
| RRIRVRPPRLPRPRPRPGGGPRP | 0.695 |
| RRIRNRPPRLPRPRPRPYAIPRP | -0.105 |
| RRIRLRPPRLPRPRPRPPDRPRP | 0.467 |
| RRIRHRPPRLPRPRPRPMAKPRP | -0.124 |
| RRIRYRPPRLPRPRPRPPEKPRP | 0.274 |
| RRIRMRPPRLPRPRPRPSSPPRP | 0.16 |
| RRIRCRPPRLPRPRPRPCCIPRP | -0.166 |
| RRIRLRPPRLPRPRPRPEYIPRP | -0.312 |
| RRIRMRPPRLPRPRPRPCMCPRP | -0.317 |

| Sequence | shrunken log2 fold change |
| --- | --- |
| RRIRKRPPRLPRPRPRPIEGPRP | -0.00926 |
| RRIRMRPPRLPRPRPRPQAHPRP | 0.0821 |
| RRIRRRPPRLPRPRPRPDPIPRP | 0.227 |
| RRIRMRPPRLPRPRPRPINAPRP | -0.0931 |
| RRIRVRPPRLPRPRPRPKVWPRP | 0.409 |
| RRIRNRPPRLPRPRPRPPPDPRP | 0.794 |
| RRIRNRPPRLPRPRPRPADAPRP | 0.261 |
| RRIRSRPPRLPRPRPRPMDEPRP | 0.0216 |
| RRIRIRPPRLPRPRPRPKPSPRP | 0.128 |
| RRIRQRPPRLPRPRPRPYMMPRP | 0.00408 |
| RRIRARPPRLPRPRPRPHTDPRP | -0.111 |
| RRIRNRPPRLPRPRPRPECSPRP | 0.079 |
| RRIRKRPPRLPRPRPRPCAPPRP | 0.436 |
| RRIRTRPPRLPRPRPRPDKRPRP | -0.0389 |
| RRIRYRPPRLPRPRPRPVNEPRP | -0.109 |
| RRIRYRPPRLPRPRPRPREEPRP | 0.0202 |
| RRIRSRPPRLPRPRPRPNEFPRP | 0.00763 |
| RRIRSRPPRLPRPRPRPWGMPRP | -0.0848 |
| RRIRERPPRLPRPRPRPITFPRP | -0.338 |
| RRIRNRPPRLPRPRPRPANHPRP | -0.208 |
| RRIRHRPPRLPRPRPRPLTFPRP | 0.01 |
| RRIRPRPPRLPRPRPRPMSGPRP | 0.115 |
| RRIRERPPRLPRPRPRPCRGPRP | 0.0764 |
| RRIRIRPPRLPRPRPRPGFFPRP | -0.00894 |
| RRIRHRPPRLPRPRPRPSRMPRP | -0.518 |

| Sequence | shrunken log2 fold change |
| --- | --- |
| RRIRIRPPRLPRPRPRPWCMPRP | -0.693 |
| RRIRIRPPRLPRPRPRPMFTPRP | -0.212 |
| RRIRNRPPRLPRPRPRPPWQPRP | 0.161 |
| RRIRWRPPRLPRPRPRPQKYPRP | -0.348 |
| RRIRPRPPRLPRPRPRPEFEPRP | -0.0475 |
| RRIRRRPPRLPRPRPRPGYRPRP | -0.119 |
| RRIRTRPPRLPRPRPRPKNYPRP | -0.346 |
| RRIRWRPPRLPRPRPRPLFFPRP | -0.00386 |
| RRIRWRPPRLPRPRPRPPIPPRP | 0.0875 |
| RRIRKRPPRLPRPRPRPIKYPRP | 0.0425 |
| RRIRLRPPRLPRPRPRPREEPRP | -0.0235 |
| RRIRCRPPRLPRPRPRPKTGPRP | -0.0569 |
| RRIRVRPPRLPRPRPRPSCNPRP | -0.509 |
| RRIRRRPPRLPRPRPRPFWVPRP | 0.236 |
| RRIRSRPPRLPRPRPRPWGIPRP | -0.118 |
| RRIRFRPPRLPRPRPRPAPLPRP | 0.516 |
| RRIRCRPPRLPRPRPRPWILPRP | -0.357 |
| RRIRYRPPRLPRPRPRPTCNPRP | -0.351 |
| RRIRVRPPRLPRPRPRPIIAPRP | -0.195 |
| RRIRRRPPRLPRPRPRPEWTPRP | 0.0215 |
| RRIRMRPPRLPRPRPRPTFLPRP | -0.319 |
| RRIRLRPPRLPRPRPRPWDYPRP | 0.0642 |
| RRIRTRPPRLPRPRPRPTVIPRP | -0.17 |
| RRIRARPPRLPRPRPRPHSRPRP | -0.0946 |
| RRIRLRPPRLPRPRPRPSFYPRP | -0.7 |

| Sequence | shrunken log2 fold change |
| --- | --- |
| RRIRHRPPRLPRPRPRPDCTPRP | 0.0402 |
| RRIRKRPPRLPRPRPRPMGVPRP | 0.196 |
| RRIRGRPPRLPRPRPRPNQFPRP | 0.0521 |
| RRIRGRPPRLPRPRPRPRTRPRP | 1.01 |
| RRIRDRPPRLPRPRPRPDWEPRP | 0.0165 |
| RRIRTRPPRLPRPRPRPHDDPRP | -0.0991 |
| RRIRHRPPRLPRPRPRPNDAPRP | -0.2 |
| RRIRQRPPRLPRPRPRPAFNPRP | 0.18 |
| RRIRTRPPRLPRPRPRPVPMPRP | -0.299 |
| RRIRNRPPRLPRPRPRPCWLPRP | -0.7 |
| RRIRTRPPRLPRPRPRPFECPRP | -0.143 |
| RRIRQRPPRLPRPRPRPFVPPRP | 0.0357 |
| RRIRYRPPRLPRPRPRPMYMPRP | -2.38 |
| RRIRWRPPRLPRPRPRPVVSPRP | 0.0155 |
| RRIRVRPPRLPRPRPRPFNDPRP | -0.416 |
| RRIRTRPPRLPRPRPRPTRYPRP | 0.228 |
| RRIRLRPPRLPRPRPRPVLPPRP | -0.0546 |
| RRIRIRPPRLPRPRPRPVERPRP | 0.0257 |
| RRIRWRPPRLPRPRPRPNRRPRP | 0.191 |
| RRIRCRPPRLPRPRPRPHCLPRP | -1.4 |
| RRIRKRPPRLPRPRPRPNDKPRP | -0.0282 |
| RRIRTRPPRLPRPRPRPQKVPRP | -0.0169 |
| RRIRDRPPRLPRPRPRPKDIPRP | -0.0599 |
| RRIRERPPRLPRPRPRPCKQPRP | -0.086 |
| RRIRGRPPRLPRPRPRPQVHPRP | 0.231 |

| Sequence | shrunken log2 fold change |
| --- | --- |
| RRIRHRPPRLPRPRPRPIAMPRP | -0.119 |
| RRIRRRPPRLPRPRPRPEYEPRP | -0.022 |
| RRIRKRPPRLPRPRPRPLACPRP | -0.0149 |
| RRIRWRPPRLPRPRPRPVPRPRP | 0.549 |
| RRIRGRPPRLPRPRPRPMDLPRP | 0.241 |
| RRIRVRPPRLPRPRPRPIFAPRP | 0.231 |
| RRIRCRPPRLPRPRPRPYDHPRP | -0.797 |
| RRIRRRPPRLPRPRPRPQLWPRP | 0.146 |
| RRIRQRPPRLPRPRPRPQPTPRP | 0.163 |
| RRIRKRPPRLPRPRPRPNFWPRP | -0.152 |
| RRIRNRPPRLPRPRPRPMLVPRP | -0.0299 |
| RRIRNRPPRLPRPRPRPKPYPRP | -0.342 |
| RRIRRRPPRLPRPRPRPDQTPRP | 0.0174 |
| RRIRHRPPRLPRPRPRPGEQPRP | 0.0974 |
| RRIRLRPPRLPRPRPRPANWPRP | 0.0804 |
| RRIRWRPPRLPRPRPRPIHMPRP | -0.246 |
| RRIRSRPPRLPRPRPRPMEQPRP | -0.00992 |
| RRIRNRPPRLPRPRPRPMGWPRP | -0.00822 |
| RRIRMRPPRLPRPRPRPEIKPRP | 3.3 |
| RRIRTRPPRLPRPRPRPCIQPRP | 0.0196 |
| RRIRRRPPRLPRPRPRPGRIPRP | 0.0214 |
| RRIRERPPRLPRPRPRPFCLPRP | -0.558 |
| RRIRKRPPRLPRPRPRPVHNPRP | -0.0446 |
| RRIRERPPRLPRPRPRPSCPPRP | -0.361 |
| RRIRDRPPRLPRPRPRPDYVPRP | -0.0518 |
